Assay results published in patent US20110053851A1.

Target: human FXa (human) (UniProt P00742)
Assay: cell-based or functional assay

UniProt P00742, sequence (P00742 41-488 limits assumed): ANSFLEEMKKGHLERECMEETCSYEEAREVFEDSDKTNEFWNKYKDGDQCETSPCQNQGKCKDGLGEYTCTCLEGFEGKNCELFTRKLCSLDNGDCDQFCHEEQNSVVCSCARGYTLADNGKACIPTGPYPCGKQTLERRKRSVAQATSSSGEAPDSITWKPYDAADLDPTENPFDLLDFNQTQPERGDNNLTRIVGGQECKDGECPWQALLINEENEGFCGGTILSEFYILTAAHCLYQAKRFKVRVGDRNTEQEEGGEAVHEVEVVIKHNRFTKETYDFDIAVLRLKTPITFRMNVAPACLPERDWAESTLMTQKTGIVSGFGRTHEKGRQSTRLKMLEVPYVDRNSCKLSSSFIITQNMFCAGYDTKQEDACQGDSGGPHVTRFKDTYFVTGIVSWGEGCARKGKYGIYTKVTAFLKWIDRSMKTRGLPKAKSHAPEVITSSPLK

P. textilis snake venom FV
CT (ave) (sec), citrated plasma; Fva 10 (1/10), PL 50, Ca 50: 23.7 s
CT (ave) (sec), citrated plasma; Fva 10 (1/100), PL 50, Ca 50: 54.7 s
CT (ave) (sec), citrated plasma; Fva 25 (1/10), PL 50, Ca 50: 19.7 s
CT (ave) (sec), citrated plasma; Fva 25 (1/100), PL 50, Ca 50: 41 s
CT (ave) (sec), citrated plasma; Fva 50 (1/10), PL 0, Ca 50: 67.5 s
CT (ave) (sec), citrated plasma; Fva 50 (1/10), PL 50, Ca 50: 18 s
CT (ave) (sec), citrated plasma; Fva 50 (1/100), PL 0, Ca 50: 90.8 s
CT (ave) (sec), citrated plasma; Fva 50 (1/100), PL 50, Ca 50: 31.6 s
CT (ave) (sec), citrated plasma; Fva 50 (1/1000), PL 0, Ca 50: > 300 s
CT (ave) (sec), citrated plasma; Fva 50 (1/1000), PL 50, Ca 50: 68.7 s
CT (ave) (sec), citrated plasma; Fva (A280 = 1.080) 10, PL 50, Ca 50: 15 s
CT (ave) (sec), citrated plasma; Fva (A280 = 1.080) 25, PL 50, Ca 50: 13.6 s
CT (ave) (sec), citrated plasma; Fva (A280 = 1.080) 50, PL 0, Ca 50: 54.3 s
CT (ave) (sec), citrated plasma; Fva (A280 = 1.080) 50, PL 50, Ca 0: > 300 s
CT (ave) (sec), citrated plasma; Fva (A280 = 1.080) 50, PL 50, Ca 50: 12.7 s
Citrated Plasma Clotting Time (Sec) at FV 0.7 nM (0 nM FV: 151): 69 s
Citrated Plasma Clotting Time (Sec) at FV 7 nM (0 nM FV: 151): 32 s
Citrated Plasma Clotting Time (Sec) at FV 70 nM (0 nM FV: 151): 18 s
Citrated Plasma Clotting Time (Sec) at FV 700 nM (0 nM FV: 151): 13 s
Clotting time (sec) (1), citrated plasma; Fva 10 (1/10), PL 50, Ca 50: 24.1 s
Clotting time (sec) (1), citrated plasma; Fva 10 (1/100), PL 50, Ca 50: 53.3 s
Clotting time (sec) (1), citrated plasma; Fva 25 (1/10), PL 50, Ca 50: 19.6 s
Clotting time (sec) (1), citrated plasma; Fva 25 (1/100), PL 50, Ca 50: 39.5 s
Clotting time (sec) (1), citrated plasma; Fva 50 (1/10), PL 0, Ca 50: 68.9 s
Clotting time (sec) (1), citrated plasma; Fva 50 (1/10), PL 50, Ca 50: 18.3 s
Clotting time (sec) (1), citrated plasma; Fva 50 (1/100), PL 0, Ca 50: 84.3 s
Clotting time (sec) (1), citrated plasma; Fva 50 (1/100), PL 50, Ca 50: 32.3 s
Clotting time (sec) (1), citrated plasma; Fva 50 (1/1000), PL 0, Ca 50: > 300 s
Clotting time (sec) (1), citrated plasma; Fva 50 (1/1000), PL 50, Ca 50: 69.7 s
Clotting time (sec) (1), citrated plasma; Fva (A280 = 1.080) 10, PL 50, Ca 50: 15.2 s
Clotting time (sec) (1), citrated plasma; Fva (A280 = 1.080) 25, PL 50, Ca 50: 13.3 s
Clotting time (sec) (1), citrated plasma; Fva (A280 = 1.080) 50, PL 0, Ca 50: 54.1 s
Clotting time (sec) (1), citrated plasma; Fva (A280 = 1.080) 50, PL 50, Ca 0: > 300 s
Clotting time (sec) (1), citrated plasma; Fva (A280 = 1.080) 50, PL 50, Ca 50: 12.6 s
Clotting time (sec) (2), citrated plasma; Fva 10 (1/10), PL 50, Ca 50: 23.4 s
Clotting time (sec) (2), citrated plasma; Fva 10 (1/100), PL 50, Ca 50: 56 s
Clotting time (sec) (2), citrated plasma; Fva 25 (1/10), PL 50, Ca 50: 19.8 s
Clotting time (sec) (2), citrated plasma; Fva 25 (1/100), PL 50, Ca 50: 42.5 s
Clotting time (sec) (2), citrated plasma; Fva 50 (1/10), PL 0, Ca 50: 67 s
Clotting time (sec) (2), citrated plasma; Fva 50 (1/10), PL 50, Ca 50: 17.6 s
Clotting time (sec) (2), citrated plasma; Fva 50 (1/100), PL 0, Ca 50: 97.4 s
Clotting time (sec) (2), citrated plasma; Fva 50 (1/100), PL 50, Ca 50: 31 s
Clotting time (sec) (2), citrated plasma; Fva 50 (1/1000), PL 0, Ca 50: > 300 s
Clotting time (sec) (2), citrated plasma; Fva 50 (1/1000), PL 50, Ca 50: 67.7 s
Clotting time (sec) (2), citrated plasma; Fva (A280 = 1.080) 10, PL 50, Ca 50: 14.8 s
Clotting time (sec) (2), citrated plasma; Fva (A280 = 1.080) 25, PL 50, Ca 50: 13.8 s
Clotting time (sec) (2), citrated plasma; Fva (A280 = 1.080) 50, PL 0, Ca 50: 54.5 s
Clotting time (sec) (2), citrated plasma; Fva (A280 = 1.080) 50, PL 50, Ca 0: > 300 s
Clotting time (sec) (2), citrated plasma; Fva (A280 = 1.080) 50, PL 50, Ca 50: 12.8 s
clotting time of re-calcified citrated whole blood with 20 nM APC and 280 nM snake venom FV (no APC: 505 seconds; APC alone: 1333 seconds): 127 s
